Literature values in PMC9784434.

Molecular target: NKG2D (Homo sapiens) (UniProt P26718)
UniProt P26718, sequence (P26718 whole entry): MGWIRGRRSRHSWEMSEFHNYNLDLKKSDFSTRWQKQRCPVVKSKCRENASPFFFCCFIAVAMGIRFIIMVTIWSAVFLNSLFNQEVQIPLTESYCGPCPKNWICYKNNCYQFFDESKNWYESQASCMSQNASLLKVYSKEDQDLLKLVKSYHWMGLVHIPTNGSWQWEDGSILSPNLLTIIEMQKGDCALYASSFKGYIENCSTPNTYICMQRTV

Kd: 800 nM
Substance: MICB (from UniProt Q29980)
